Molecular target: HRP2 (hepatoma-derived growth factor-related protein 2) IBD (UniProt Q7Z4V5)
Experiment: biotin-peptide streptavidin pull-down, GST blot
Settings: reference: unphosphorylated IBM peptide; sites S323

UniProt Q7Z4V5, sequence (Q7Z4V5 whole entry, looked up): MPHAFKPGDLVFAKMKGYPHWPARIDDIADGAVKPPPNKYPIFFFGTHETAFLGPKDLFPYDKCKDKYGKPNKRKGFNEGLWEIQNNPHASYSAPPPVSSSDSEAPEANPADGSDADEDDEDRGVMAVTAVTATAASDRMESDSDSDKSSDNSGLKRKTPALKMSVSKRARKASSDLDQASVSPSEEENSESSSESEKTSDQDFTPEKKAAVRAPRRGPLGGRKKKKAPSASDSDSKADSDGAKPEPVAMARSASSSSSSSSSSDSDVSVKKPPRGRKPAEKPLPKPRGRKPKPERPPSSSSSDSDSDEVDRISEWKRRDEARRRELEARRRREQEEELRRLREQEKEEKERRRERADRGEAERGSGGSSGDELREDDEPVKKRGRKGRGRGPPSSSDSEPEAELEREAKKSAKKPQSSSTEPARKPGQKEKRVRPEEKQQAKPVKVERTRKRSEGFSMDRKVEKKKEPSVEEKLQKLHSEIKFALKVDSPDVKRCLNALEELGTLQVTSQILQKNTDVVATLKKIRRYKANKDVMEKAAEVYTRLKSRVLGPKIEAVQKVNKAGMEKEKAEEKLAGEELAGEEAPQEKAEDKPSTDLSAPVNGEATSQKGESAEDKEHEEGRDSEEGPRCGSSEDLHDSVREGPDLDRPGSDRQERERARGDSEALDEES

With “DPF3a (BAF45c) IBM peptide (from UniProt Q92784-2) pS323 IBM peptide” the “binding against the reference” value was “stronger”.
